Test results reported in article PMC11718114.

Experiments:
[1] = target: PI3Kα: p110α(2-1068) W1057A/I1058A/F1059A + p85(322-600) (human) (UniProt P42336); assay: ITC; GMPPNP-bound RAS (300–500 μM) in the syringe, PI3K isoform or PI3Kα-RBD (30–50 μM) in the cell; 25 °C; 20 mM HEPES pH 7.4, 150 mM NaCl, 5 mM MgCl2, 1 mM TCEP; one set of sites; duplicates
PI3Kα-RBD-T208A (human) = PI3Kα-RBD-T208A (human) (UniProt P42336); assay: ITC; RAS GTPase (GMPPNP-bound, 300–500 μM) in the syringe, PI3K isoform or PI3Kα-RBD (30–50 μM) in the cell; 25 °C; 20 mM HEPES pH 7.4, 150 mM NaCl, 5 mM MgCl2, 1 mM TCEP; one set of sites; two replicates
[2] = target: PI3Kδ: p110δ(1-1044) + p85(322-600) (human) (UniProt O00329); assay: ITC; GMPPNP-bound RAS (300–500 μM) in the syringe, PI3K isoform or PI3Kα-RBD (30–50 μM) in the cell; 25 °C; 20 mM HEPES pH 7.4, 150 mM NaCl, 5 mM MgCl2, 1 mM TCEP; one set of sites; duplicates
[3] = target: p110α-RBD(157-289) K206A (human) (UniProt P42336); assay: as above
[4] = target: p110α-RBD(157-289) K210A (human) (UniProt P42336); assay: as above
[5] = target: p110α-RBD(157-289) T208A (human) (UniProt P42336); assay: as above
[6] = target: PI3Kα-RBD, PIK3CA-RBD(157-289) (human) (UniProt P42336); assay: as above
PI3Kα-RBD-K206A (human) = PI3Kα-RBD-K206A (human) (UniProt P42336); assay: ITC; RAS GTPase (GMPPNP-bound, 300–500 μM) in the syringe, PI3K isoform or PI3Kα-RBD (30–50 μM) in the cell; 25 °C; 20 mM HEPES pH 7.4, 150 mM NaCl, 5 mM MgCl2, 1 mM TCEP; one set of sites; two replicates
PI3Kα-RBD-K210A (human) = PI3Kα-RBD-K210A (human) (UniProt P42336); assay: as above
PI3Kα-RBD-Q205A (human) = PI3Kα-RBD-Q205A (human) (UniProt P42336); assay: as above
PI3Kα-RBD-S231A (human) = PI3Kα-RBD-S231A (human) (UniProt P42336); assay: as above
[7] = target: PI3Kα-RBD, PIK3CA-RBD(157-289) (human) (UniProt P42336); assay: as above

Row | Substance | Kd [7] [µM] | stoichiometry N [7] [sites] | other results
1 | MRAS (wild type) (from UniProt O14807 1-178) (domain or fragment) | – | – | Kd [1]: 5.3 µM; dH [1]: -17 kcal/mol
2 | MRAS, GMPPNP-bound (from UniProt O14807 1-178) (domain or fragment) | – | – | Kd (PI3Kα-RBD-T208A (human)): 19.5 µM; stoichiometry N (PI3Kα-RBD-T208A (human)): 0.93 sites
3 | RRAS2 (wild type) (from UniProt P62070 1-179) (domain or fragment) | – | – | Kd [1]: 3.9 µM; dH [1]: -17 kcal/mol; Kd [2]: 14 µM; fold reduction in affinity against wild-type p110α-RBD [3]: 15 fold; fold decrease in affinity against wild-type p110α-RBD [4]: 5 fold; fold decrease in affinity against wild-type p110α-RBD [5]: 5 fold
4 | RRAS2 T52R (from UniProt P62070 1-179) (domain or fragment) | – | – | fold reduction in binding affinity against wild-type RRAS2 [6]: 7 fold
5 | RRAS2, GMPPNP-bound (from UniProt P62070 1-179) (domain or fragment) | – | – | Kd (PI3Kα-RBD-K206A (human)): 107 µM; stoichiometry N (PI3Kα-RBD-K206A (human)): 0.92 sites; Kd (PI3Kα-RBD-K210A (human)): 41.7 µM; stoichiometry N (PI3Kα-RBD-K210A (human)): 0.81 sites; Kd (PI3Kα-RBD-Q205A (human)): 8.2 µM; stoichiometry N (PI3Kα-RBD-Q205A (human)): 0.86 sites; Kd (PI3Kα-RBD-S231A (human)): 8.3 µM; stoichiometry N (PI3Kα-RBD-S231A (human)): 0.88 sites; Kd (PI3Kα-RBD-T208A (human)): 45 µM; stoichiometry N (PI3Kα-RBD-T208A (human)): 0.9 sites
6 | RRAS2-D42A, GMPPNP-bound (from UniProt P62070 1-179) (domain or fragment) | 66.9 | 1.2 | –
7 | RRAS2-D42E, GMPPNP-bound (from UniProt P62070 1-179) (domain or fragment) | 16.1 | 0.89 | –
8 | RRAS2-D44A, GMPPNP-bound (from UniProt P62070 1-179) (domain or fragment) | 28.2 | 0.81 | –
9 | RRAS2-E48A, GMPPNP-bound (from UniProt P62070 1-179) (domain or fragment) | 32.4 | 0.92 | –
10 | RRAS2-E74A, GMPPNP-bound (from UniProt P62070 1-179) (domain or fragment) | 12.4 | 0.83 | –
11 | RRAS2-F75A, GMPPNP-bound (from UniProt P62070 1-179) (domain or fragment) | 21.5 | 1.11 | –
12 | RRAS2-G23D, GMPPNP-bound (from UniProt P62070 1-179) (domain or fragment) | 6.4 | 0.75 | –
13 | RRAS2-G23V, GMPPNP-bound (from UniProt P62070 1-179) (domain or fragment) | 12.8 | 0.91 | –
14 | RRAS2-M78A, GMPPNP-bound (from UniProt P62070 1-179) (domain or fragment) | 134 | 1.2 | –
15 | RRAS2-Q72H, GMPPNP-bound (from UniProt P62070 1-179) (domain or fragment) | 14.2 | 0.85 | –
16 | RRAS2-Q72L, GMPPNP-bound (from UniProt P62070 1-179) (domain or fragment) | 8.5 | 0.88 | –
17 | RRAS2-R63A, GMPPNP-bound (from UniProt P62070 1-179) (domain or fragment) | 6.4 | 0.9 | –
18 | RRAS2-T52R, GMPPNP-bound (from UniProt P62070 1-179) (domain or fragment) | 28.5 | 1.01 | –
19 | RRAS2-Y38F, GMPPNP-bound (from UniProt P62070 1-179) (domain or fragment) | 4.3 | 0.92 | –
